Results on 1 substance are retold here after patent US7854918B2, “Composition for medical use having improved water-solubility of peptide and metal-labeling efficiency and preparation for medical use comprising metal-labeled peptide” (Nihon Medi-Physics Co., Ltd., priority 2004, dated 2010).

The nature of this series: Tc-99m labeling at room temperature, radiochemical purity by TLC. In kind it is physicochemical. How it is done:
Peptide 1 was dissolved in the aqueous solution of arginine with pH 10 obtained in Example 2 to prepare 9.4 μM peptide/arginine solution. 25 μL of a solution of 10 mL of 0.01 M hydrochloric acid supplemented with 5 mg of stannous chloride solution was added to 700 μL of the peptide/arginine solution, and 0.6 to 1.0 GBq of Tc-99m-sodium pertechnetate (hereinafter, 99 mTcO4^−) solution was quickly added thereto to adjust the total amount to 1 mL. After the labeling procedure, the peptide concentration was diluted to 6.6 μM. After shaking for several seconds, the solution was reacted at room temperature. A portion thereof was taken on 10 minutes and 90 minutes after the labeling procedure to determine each Tc-99m labeling rate by HPLC and TLC. The HPLC and TLC analyses were performed under conditions described below.
For comparative controls, Peptide 1 was dissolved in dimethylsulfoxide (DMSO) and then diluted 10-fold with 100 mM phosphate buffer solution (hereinafter, PB) with pH 10 to prepare a peptide/DMSO/PB solution with the final peptide concentration of 9.4 μM. Alternatively, Peptide 1 was dissolved in PB to prepare a peptide/PB solution with the final peptide concentration of 9.4 μM. These solutions were labeled in the same way as in the peptide/arginine solution to determine each Tc-99m labeling rate by HPLC and TLC. After the labeling procedure, the peptide concentration was diluted to 6.6 μM.
Plate: Silica Gel 60F254 (manufactured by Merck)
Developing solvent: 28% ammonia water/acetonitrile=½
Radioactivity detector: Gita NaI scintillator (manufactured by Raytest)
12.5, 25, and 50 mg of arginine was weighed, then dissolved in water, and adjusted with hydrochloric acid to pH 10 to adjust each total amount to 700 μL. Molarities in these solutions are 102.5 mM, 205 mM, and 410 mM, respectively. Peptide 1 was dissolved in these aqueous solutions of arginine to prepare respective 9.4 μM peptide/arginine solutions. 25 μL of a solution of 10 mL of 0.01 M hydrochloric acid supplemented with 5 mg of stannous chloride solution was added to each of the peptide/arginine solutions, and 0.6 to 1.0 GBq of 99 mTcO4^− solution was quickly added thereto to adjust each total amount to 1 mL. After shaking for several seconds, the solutions were reacted at room temperature. A portion thereof was taken on 30 minutes, 90 minutes, 180 minutes, 360 minutes, 24 hours, and 30 hours after the labeling procedure to determine each radiochemical purity by TLC analysis under the conditions described in Example 5.

Square brackets hold non-standard residues; d marks the D form. Ends that are not written are not given here. * marks the point of attachment. Nle = CCCC[C@H](N)C(=O)O; For = O=C*

As to “formyl-Nle-Leu-Phe-Nle-Tyr-Lys(NH2)-ε(-Ser-D-Arg-Asp-Cys-Asp-Asp) (For-[Nle]LF[Nle]YKS[dR]DCDD; also: Lys(NH2): Lys α-carboxamide, Ser-D-Arg-Asp-Cys-Asp-Asp branch on Lys ε-amine) [Peptide 1]”, the “Radiochemical purity (TLC)” value (102.5 mM arginine pH 10, 30 minutes after labeling) was 93.3%; the “Radiochemical purity (TLC)” value (102.5 mM arginine pH 10, 90 minutes after labeling) was determined as 92.6%; the “Radiochemical purity (TLC)” value (102.5 mM arginine pH 10, 180 minutes after labeling) was 92.6%; the “Radiochemical purity (TLC)” value (102.5 mM arginine pH 10, 360 minutes after labeling) was found to be 91.2%; the “Radiochemical purity (TLC)” value (102.5 mM arginine pH 10, 24 hours after labeling) worked out at 88.9%; the “Radiochemical purity (TLC)” value (102.5 mM arginine pH 10, 30 hours after labeling) was 89.8%. In addition, the “Radiochemical purity (TLC)” value is, setting by setting: (205 mM arginine pH 10, 30 minutes after labeling) 92.0%; (205 mM arginine pH 10, 90 minutes after labeling) 90.8%; (205 mM arginine pH 10, 180 minutes after labeling) 89.7%; (205 mM arginine pH 10, 360 minutes after labeling) 89.7%; (205 mM arginine pH 10, 24 hours after labeling) 88.3%; (205 mM arginine pH 10, 30 hours after labeling) 87.3%. In addition, the “Radiochemical purity (TLC)” value is, setting by setting: (410 mM arginine pH 10 (Example 6), 30 minutes after labeling) 91.6%; (410 mM arginine pH 10 (Example 6), 90 minutes after labeling) 89.5%; (410 mM arginine pH 10 (Example 6), 180 minutes after labeling) 87.1%; (410 mM arginine pH 10 (Example 6), 360 minutes after labeling) 85.7%; (410 mM arginine pH 10 (Example 6), 24 hours after labeling) 86.5%; (410 mM arginine pH 10 (Example 6), 30 hours after labeling) 84.9%. For the same substance, the “Radiochemical purity (TLC)” value (Tc-99m labeling in DMSO/phosphate buffer solution pH 10, room temperature, 10 minutes) is 45.7%; the “Radiochemical purity (TLC)” value (Tc-99m labeling in DMSO/phosphate buffer solution pH 10, room temperature, 90 minutes) is given as 41.9%; the “Radiochemical purity (TLC)” value (Tc-99m labeling in phosphate buffer solution pH 10, room temperature, 10 minutes) worked out at 28.0%; the “Radiochemical purity (TLC)” value (Tc-99m labeling in phosphate buffer solution pH 10, room temperature, 90 minutes) is on record as 33.6%.
